The source of these data is patent US20150110792A1 (Biogen, published 2015).

In test [1] the target is T1, human TIM-1-Fc (extracellular domain of human TIM-1, residues 1-290, attached to the Fc portion of human IgG1) (human, UniProt Q96D42 21-290).
T1 construct: also called TIM-1-Ig; human TIM1-Ig; not shown: Fc portion of human IgG1
T1 sequence: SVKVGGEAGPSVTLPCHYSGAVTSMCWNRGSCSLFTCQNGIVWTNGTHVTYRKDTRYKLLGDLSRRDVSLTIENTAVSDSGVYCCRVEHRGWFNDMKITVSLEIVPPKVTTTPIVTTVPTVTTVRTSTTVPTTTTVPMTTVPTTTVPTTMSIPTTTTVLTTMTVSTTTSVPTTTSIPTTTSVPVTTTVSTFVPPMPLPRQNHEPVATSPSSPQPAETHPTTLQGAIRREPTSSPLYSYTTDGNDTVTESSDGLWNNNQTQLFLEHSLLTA
Description: ELISA-2, plates coated with 0.2 µg/ml human TIM-1-Fc. The method, then: (§1) In the second assay, an ELISA format was used to measure the relative affinity of three anti-TIM-1 monoclonal antibodies for human TIM-1. Titration curves were derived for each antibody and EC50 values were calculated from the curves. Briefly, ELISA plates (Corning Costar) were coated with 0.2 μg/ml human TIM-1-Fc overnight at 4° C. and then blocked for 1 hour at 22° C. with PBS/0.5% casein. Plates were thoroughly washed with PBS/0.1% Tween-20. Anti-human TIM-1 monoclonal antibodies were added across a range of concentrations starting at 10 μg/ml and using 1:3 dilutions, all in PBS/0.5% casein, and allowed to incubate for 1 hour at 22° C. The plates were washed again, and then a 1:1000 dilution of HRP-conjugated goat anti-mouse IgG (H+L; Jackson Immunoresearch Laboratories) was added in PBS/0.5% casein for an additional hour at 22° C. After a final wash, the plates were developed using substrate solution mix (R&D Systems) and stopped using 2N H2SO4. Plates were read at 450 nm using a microplate reader and analyzed using SoftMax Pro (Molecular Devices). Relative EC50 values were determined from the binding curves.
(§2) The cynomolgus monkey TIM-1 extracellular domain was expressed as an Fc fusion protein, purified, and used in the ELISA format described above for binding monoclonal antibodies to the human TIM-1 protein. […]

Test [2] addresses T1, human TIM-1-Fc (extracellular domain of …). Description: ELISA, plates coated with human TIM-1-Fc. The method, then:
as §1

Test [3] concerns the target T2, cynomolgus monkey TIM-1-Fc (cynomolgus monkey TIM-1 extracellular domain expressed as an Fc fusion protein) (Cynomolgus monkey (Macaca fascicularis)).
T2 construct: also called cyno.TIM1; not shown: Fc part
T2 chain: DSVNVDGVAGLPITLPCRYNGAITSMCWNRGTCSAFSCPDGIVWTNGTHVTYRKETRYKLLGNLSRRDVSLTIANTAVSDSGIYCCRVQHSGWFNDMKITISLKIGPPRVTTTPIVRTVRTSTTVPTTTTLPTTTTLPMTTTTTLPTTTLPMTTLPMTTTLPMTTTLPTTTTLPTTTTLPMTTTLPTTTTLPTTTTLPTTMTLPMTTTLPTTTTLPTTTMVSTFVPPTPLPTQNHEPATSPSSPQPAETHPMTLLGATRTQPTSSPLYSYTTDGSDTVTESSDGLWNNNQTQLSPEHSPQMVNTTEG
Description: SPR (Biacore), cynomolgus monkey TIM-1-Fc.

Test [4] has as its target T3, Cynomolgus monkey TIM-1 expressed on transfected 293E cells (Cynomolgus monkey (Macaca fascicularis), UniProt O46598 25-478 (Chlorocebus aethiops entry)).
T3 construct: Full-length cDNA (pEAG2184) transfected into 293E cells; also called Cynomolgus TIM-1
T3 chain: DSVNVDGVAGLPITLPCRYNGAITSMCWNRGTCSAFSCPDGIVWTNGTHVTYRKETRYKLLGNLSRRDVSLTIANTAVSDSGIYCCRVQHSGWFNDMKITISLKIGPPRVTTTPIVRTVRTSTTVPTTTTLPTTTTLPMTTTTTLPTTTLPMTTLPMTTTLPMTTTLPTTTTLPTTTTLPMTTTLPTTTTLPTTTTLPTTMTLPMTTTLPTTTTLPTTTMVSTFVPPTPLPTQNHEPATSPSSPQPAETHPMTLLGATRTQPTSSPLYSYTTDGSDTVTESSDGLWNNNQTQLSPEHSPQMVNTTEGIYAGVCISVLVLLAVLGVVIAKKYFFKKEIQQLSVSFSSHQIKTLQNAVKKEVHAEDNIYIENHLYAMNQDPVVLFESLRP
Nature of the test: flow cytometry on 293E cells transfected with Cynomolgus monkey TIM-1 cDNA, gated on EGFP-positive cells, PE anti-mouse IgG. The procedure: In a second series of experiments, 293E cells transfected with human TIM-1 cDNA or Cynomolgus monkey TIM-1 cDNA were analyzed for anti-human TIM-1 monoclonal antibody binding by flow cytometry. The full-length human and cynomolgus monkey TIM1 cDNAs were engineered to remove extraneous 5′ and 3′ UTRs and to add an identical optimized Kozak sequence, then were subcloned into pNE001, a fully sequence-confirmed pUC-based EBV expression vector derived from the Invitrogen expression vector pCEP4, in which heterologous gene expression is controlled by a CMV-IE promoter and an SV40 polyadenylation signal, but lacking the EBNA gene and the hygromycin resistance gene. TIM-1 expression vectors (human: pEAG2182, and cynomolgus monkey: pEAG2184) were co-transfected into 293E cells at a 1:1 molar ratio with an EBV expression vector carrying an EGFP reporter (pEAG1458). Cells were transfected using Qiagen's Effectene reagent, following the manufacturer's recommended protocol. Cells were used in FACS at 2 days post-transfection, staining with a dilution titration series of murine anti-human TIM1 monoclonal antibodies, (detected with PE-conjugated goat anti-mouse IgG secondary antibody) and gating on green EGFP-positive living cells. […]

The target in test [5] is T1, human TIM-1-Fc (extracellular domain of …). Description: ELISA-1, plates coated with 2 µg/ml human TIM-1-Fc. The procedure: as §1, with “Briefly, ELISA plates (Corning Costar) were coated with 0.2 μg/ml human TIM-1-Fc overnight at 4° C. and then blocked for 1 hour at 22° C. with PBS/0.5% casein.” left out
The cynomolgus monkey TIM-1 extracellular domain was expressed as an Fc fusion protein, purified, and used in the ELISA format described above for binding monoclonal antibodies to the human TIM-1 protein. […] The resulting titration curves were used to derive a relative EC50 for anti-human TIM-1 monoclonal antibody binding to human TIM-1 and cynomolgus monkey TIM-1 (Table 2, ELISA-2).

For test [6], the target named is T2, cynomolgus monkey TIM-1-Fc (cynomolgus …). Nature of the test: ELISA-1, plates coated with 2 µg/ml cynomolgus monkey TIM-1-Fc. The procedure:
as §1, §2

Test [7] has as its target T4, human TIM-1 expressed on cells (human, UniProt Q96D42 21-364).
T4 construct: Full-length human TIM-1 on transfected (HEK 293T, 293E, JUN2 Jurkat) or constitutively expressing (769-P) cells; also called HAVCR1; KIM-1
T4 sequence: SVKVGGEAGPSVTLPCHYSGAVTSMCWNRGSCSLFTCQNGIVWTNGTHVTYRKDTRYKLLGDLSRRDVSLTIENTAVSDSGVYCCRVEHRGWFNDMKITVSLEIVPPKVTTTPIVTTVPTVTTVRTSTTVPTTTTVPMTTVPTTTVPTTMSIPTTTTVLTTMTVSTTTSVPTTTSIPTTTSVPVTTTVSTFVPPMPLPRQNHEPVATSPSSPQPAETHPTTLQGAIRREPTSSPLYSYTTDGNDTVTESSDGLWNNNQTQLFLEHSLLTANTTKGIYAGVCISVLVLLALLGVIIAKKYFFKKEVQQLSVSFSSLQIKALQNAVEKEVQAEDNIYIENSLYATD
Nature of the test: flow cytometry on JUN2 cells (Jurkat stably expressing human TIM-1), PE anti-mouse IgG, MFI against µg/ml of mAb. The procedure: (§3) Three assays were used to assess the affinity of ARD5 for human TIM-1. In the first assay, ARD5 binding to cells expressing TIM-1 was measured by Flow Cytometry. Two cell lines were used. JUN2 cells are a stable human Jurkat TIM-1-expressing cell line (described in Binne et al. (2007) J. Immunol. 178: 4342-50). The human kidney cell line 769-P also constitutively expresses TIM-1. JUN2 cells and 769-P cells were cultured in RPMI/10% FBS. JUN2 cells grow in suspension; 769-P cells are adherent and were gently removed with Accutase (Invitrogen). Cells were resuspended in PBS/5% BSA and incubated with monoclonal antibodies for 1 hour on ice. Following several washes with PBS/5% BSA, the cells were resuspended in the same buffer containing PE-coupled donkey anti-mouse IgG secondary antibody (Jackson Immunoresearch). Following an additional wash in PBS/5% BSA and a final wash in PBS, cell were resuspended in 100 ul PBS and fixed in an equal volume of 2% paraformaldehyde. Monoclonal antibody binding was analyzed using a flow cytometer (FACScan).

The target in test [8] is T2, cynomolgus monkey TIM-1-Fc (cynomolgus …). Description: ELISA-2, plates coated with 0.2 µg/ml cynomolgus monkey TIM-1-Fc. The method, then:
as §1, §2

Test [9] has as its target T1, human TIM-1-Fc (extracellular domain of …). Description: SPR (Biacore), human TIM-1-Fc.
For test [10], the target named is T4, human TIM-1 expressed on cells. Description: flow cytometry on 769-P cells (constitutively expressing human TIM-1), PE anti-mouse IgG, MFI against µg/ml of mAb. The method, then: as §3
The target of test [11] is T1, human TIM-1-Fc (extracellular domain of …). Description: SPR (Biacore), monovalent binding to immobilized human TIM-1.

B1: monoclonal antibody ARD5 (antibody, mouse IgG1, kappa, V domains shown)
VH: QVQLQQSGAELVRPGTSVKVSCKASGYVFTNYWIEWIKQRPGQGLEWIGVMNPGSGETTYNEKFKGKATLTADKSSSTAYMQLSSLTSVDSAVYFCARDHDRDYYAMDYWGQGTSVTVSS
VL: EIQMTQSPSSMSASLGDTITITCQATQDIFKNLNWYQQKPGKPPSLLIYYATELAEGVPSRFSGSGSGSDYSLTISNLESEDFAAYYCLQFFEFPFTFGSGTKLEMKR
notes: Murine IgG1/kappa hybridoma antibody (ATCC PTA-12195); also called ARD5.12; muARD5
In the case of B1, the EC50 in [1] is 0.043 µg/mL; in [2], 0.00078 µg/mL; in test [5], 0.001 µg/mL; in test [6], 0.002 µg/mL; in test [8] it was 0.013 µg/mL. For the same molecule, the “relative EC50 against A6G2 and A3H1 (percent greater)” value in test [2] came to 80.5%. Besides, the Kd in [3] was < 50 nM; in test [9] it was ≤ 0.6 nM. The binding result in test [4] was “binds”. Moreover, the figures for the “EC50 (read off the curve)” value in test [7] and in test [10] were ~0.1 µg/mL and ~0.2 µg/mL, respectively.

B2: FAb fragment of ARD5 (Fab, V domains shown)
VH: B1 VH
VL: B1 VL
notes: Fab purified from the ARD5 monoclonal antibody; also called FAb of ARD5; not shown: murine IgG1 CH1 and part of the hinge
Turning to B2, in [11], binding was characterised by a dissociation constant (Kd) of 3 nM.
